Laboratory results from PMC3491091.

Target: soybean trypsin inhibitor (soybean) (UniProt P01070)
Test: SPR + ITC + AUC + fluorescence polarisation

α-chymotrypsin (enzyme)
stoichiometry N: 2
